Article PMC9323955, “Synthesis and Evaluation of Small Molecule Drug Conjugates Harnessing Thioester-Linked Maytansinoids” (Pharmaceutics, 2022)
“Also recorded” adds a separate entry of the source.

How the values were obtained:
[1] = tested on: HCC1806 human triple-negative breast cancer tumors; assay: HCC1806 xenograft tumor efficacy; assay type: in vivo, female nude mice
Description: Cancer cells suspended in RPMI 1640 medium (11835-030, Thermo Fisher Scientific, Waltham, MA, USA) were mixed with Matrigel™ (356237, BD Biosciences, Franklin Lakes, NJ, USA) in a 1:1 ratio. Human triple-negative breast cancer HCC1806 (1 × 10^6 cells) cells were inoculated subcutaneously into the left flank of 6-week-old female nude mice (BioLASCO Taiwan, Taipei, Taiwan) using a 1 mL syringe with a 24G needle (AN-2425R, Terumo Medical Corp., Tokyo, Japan). Tumor dimensions were measured twice weekly using electronic calipers (FOW54-200-777, PRO-MAX), and the volume of tumor grown subcutaneously (mm^3) was calculated by the formula Volume = (length × width^2)/2. A combination of 10% DMA/20% Cremophor EL/70% 5% dextrose injection (D5W) was formulated to treat HCC1806 xenograft tumors. Mice with HCC1806 tumors were grouped and administered the indicated dosing regimen of 1 mg/kg for the conjugate and 0.3 mg/kg for the cytotoxic payloads DM1 and DM4 twice-weekly (day 1 and day 4) for 2 weeks when the mean tumor volume was approximately 200–250 mm^3 or 850–900 mm^3 (large tumors). The conjugate dose of 2 mg/kg was administered weekly for the large tumor study. The body weight and tumor volume of mice were measured twice weekly. In addition, a previously reported oncogene-induced, sorafenib-resistant HCC mouse model was used in the current study to examine the antitumor activities of synthesized compounds. Briefly, plasmids including transposase (pCMV(CAT)T7-SB100), human Akt1, and luciferase (pKT2/CLP-AKT-2A-OVA-HBc-HBs-LUC) and the N-Ras V12 mutant (pT/Caggs-NRASV12) were hydrodynamically injected (HDI) and the liver was monitored for the appearance of HCC. HCC mice with a total flux of more than 1 × 10^9 photons/s from IVIS imaging were used as treatment conjugates. The indicated conjugate was administered intravenously at 1 mg/kg 3 times per week over 2 weeks. IVIS imaging was repeatedly performed to follow tumor progression, and tumor tissue from treated HCC mice was collected for histological examination and RNA extraction after administration.

[2] = tested on: HCC1806 triple-negative breast cancer cells; assay: MTS cell viability assay (72 h); assay type: cell-based, human; details: HCC1806, conjugate vs DM1/DM4
Description: HCC1806 cells were grown in RPMI 1640 medium, and MTS assays were performed to check cell viability. Cells (2500–3000 cells/well) were grown in flat-bottomed 96-well plates for 24 h, and then serial dilutions of the compound were added, and cells were allowed to incubate for a further 72 h. At the end of the 72-h incubation period, the medium was removed, and 100 μL of a solution including a mixture of MTS and PMS was added. The cells were incubated for 1.5 h at 37 °C in a humidified incubator with 5% CO2 to allow viable cells to convert tetrazolium salts to formazan. Conversion to formazan was measured by absorbance (490 nm) using a BioTek PowerWave-X absorbance microplate meter. The data collected were normalized using a DMSO-treated control (100% viability) and a background control (0% viability) to verify growth inhibition.

[3] = Pharmacokinetic study, single intravenous dose; assay type: in vivo, male ICR mice
Description: Six-week-old male ICR mice from BioLASCO Taiwan were divided into three groups and administered intravenously at a 5 mg/kg dose. Blood samples were taken from each animal at time points 0.003, 0.083, 0.25, 0.5, 1, 2, 4, 6, 8, and 24 h and stored on ice (0–4 °C). The plasma was separated from the blood by centrifugation (in a Beckman Allegra 6R at 3000 rpm, 4 °C for 15 min) and stored under freezing conditions (−20 °C). Plasma and harvested tumor samples were stored at −80 °C until use. Fifty microliters of mouse plasma or tumor samples homogenized with ddH2O at a dilution ratio of 1:3 (w/v) with MiniBeadbeater-16 (BioSpec Products Inc., Bartlesville, OK, USA) were mixed with 100 μL of acetonitrile containing 250 ng/mL BPR0L187. The mixture was vortexed for 30 s and then centrifuged at 15,000× g for 20 min. The supernatant was transferred to a clean test tube, and 15 µL of supernatant was injected into the LC/MS/MS. Plasma samples were analyzed by liquid chromatography-tandem mass spectrometry (LC/MS/MS). The chromatography system was an Agilent 1200 series liquid chromatography system and an Agilent ZORBAX Eclipse XDB-C8 column (5 µm, 3.0 × 150 mm) connected with an MDS Sciex API4000 tandem mass spectrometer equipped with an ESI in forwarding scan mode at 600 °C. Data acquisition was performed by multiple reaction monitoring (MRM). A gradient system was used to separate the analytes from the IS. Mobile phase A was a 10 mM aqueous ammonium acetate solution containing 0.1% formic acid. Mobile phase B was acetonitrile. The gradient profile was as follows. 0.0–1.1 min, 50% B; 1.2–3.7 min, 55% B-90% B; 3.8–5.0 min, 90% B-50% B. The flow rate was 1.5 mL/min. The autosampler was set to inject 15 µL of the sample every 5 min.

[4] = male ICR mice (n = 3), 5 mg/kg i.v.

Structure (SMILES): COc1cc2cc(c1Cl)N(C)C(=O)CC(OC(=O)C(C)N(C)C(=O)CCSC(=O)c1ccc(CN(CCOCCOCCNC(=O)c3ccc(CN(CCCCOc4cc(CN(Cc5ccccn5)Cc5ccccn5)cc(CN(Cc5ccccn5)Cc5ccccn5)c4)C(=O)C4(c5ccc(Cl)cc5)CCCCC4)cc3)C(=O)C3(c4ccc(Cl)cc4)CCCCC3)cc1)C1(C)OC1C(C)C1CC(O)(NC(=O)O1)C(OC)C=CC=C(C)C2.O=[N+]([O-])[O-].O=[N+]([O-])[O-].O=[N+]([O-])[O-].O=[N+]([O-])[O-].[Zn+2].[Zn+2] (centres unmarked) [Zn8_DM1]
- anti-HCC1806 tumor growth activity ([1]; 1 mg/kg i.v. twice weekly for 2 weeks, tumors 200–250 mm^3): significant activities; also recorded: shrinkage of HCC1806 tumor growth
- effect on large HCC1806 tumors ([1]; 2 mg/kg per week for two weeks, tumors ~900 mm^3): could readily arrest or shrink the growth of larger tumors
- fold attenuation in cytotoxicity relative to parent payload [2]: 2.5–6 fold
- AUC (0–24 h), intact conjugate [3, 4]: Intact Conjugate: 161,538 ng/mL·h
- CL [3, 4]: 0.5 mL/min/kg
- Vss [3, 4]: 0.6 L/kg
- AUC (0–24 h), released payload (DM1 or DM4) ([3]; male ICR mice (n = 3), 5 mg/kg i.v. of the conjugate): DM1: 500 ng/mL·h
- AUC ratio between intact conjugate and released payload ([3]; within 24 h in circulation, 5 mg/kg i.v.): large AUC ratio
